We go through 7 compounds from patent US20200262869A1, “PEPTIDE ANTIBIOTIC COMPLEXES AND METHODS OF USE THEREOF” (GENENTECH, INC., priority 2017, published 2020).

Test [1] has as its system MDR K. pneumoniae CDC 0106. Nature of the test: MIC against MDR clinical isolate. In kind it is cell-based. How it is done:
(§1) Minimum Inhibitory Concentration (MIC). MICs were determined by performing two-fold serial dilutions of compound in Mueller Hinton II cation-adjusted broth to a final volume of 0.1 m1 in round-bottom 96-well assay plates (Corning Life Sciences No 3788). Each well was inoculated with 5×10^5 CFU/ml and incubated at 37° C. without agitation for 18 hours. Plates were scored by eye, and the lowest compound concentration preventing visible growth was determined to be the MIC.

The test system of test [2] is K. pneumoniae ATCC 43816. As to the kind of experiment: MIC, broth microdilution. In kind it is cell-based. The following applies: K. pneumoniae ATCC 43816. How it is done: as §1
On the technique in general: In broth dilution the organism is exposed to a series of concentrations in liquid medium.

The subject of test [3] is P. aeruginosa ATCC 27853. Nature of the test: MIC, broth microdilution. In kind it is cell-based. How it is done: as §1
The test system of test [4] is A. baumannii ATCC 17978. As to the kind of experiment: MIC, broth microdilution. Format: cell-based. How it is done: as §1
The test system of test [5] is E. cloacae ATCC 13407. Nature of the test: MIC, broth microdilution. Format: cell-based. How it is done:
as §1

The subject of test [6] is S. marcescens CDC4385-74. As to the kind of experiment: MIC, broth microdilution. Format: cell-based. How it is done:
as §1

In test [7] the test system is C. werkmanii ATCC 51114. As to the kind of experiment: MIC, broth microdilution. Format: cell-based. How it is done:
as §1

Test [8] deals with E. aerogenes ATCC 13408. As to the kind of experiment: MIC, broth microdilution. Format: cell-based. How it is done:
as §1

In test [9] the test system is E. coli ATCC 25922. As to the kind of experiment: MIC, broth microdilution. Format: cell-based. Conditions: E. coli ATCC 25922. How it is done:
as §1

The target of test [10] is LepB P88T (E. coli ATCC 25922) (E. coli) (UniProt P00803). As to the kind of experiment: cell-based or functional assay.
For test [11], the target named is LepB A297V (E. coli ATCC 25922) (E. coli) (UniProt P00803). As to the kind of experiment: cell-based or functional assay.
The target of test [12] is LepB P88R (E. coli ATCC 25922) (E. coli) (UniProt P00803). Nature of the test: cell-based or functional assay.
Test [13] concerns the target LepB in E. coli K-12 MG1655 (E. coli) (UniProt P00803). As to the kind of experiment: cell-based or functional assay.
In test [14] the target is LepB V149(VVGLP) (E. coli ATCC 25922) (E. coli) (UniProt P00803). Nature of the test: cell-based or functional assay.
The target of test [15] is LepB P88Q (E. coli ATCC 25922) (E. coli) (UniProt P00803). As to the kind of experiment: cell-based or functional assay.
Test [16] deals with LepB V133F (E. coli ATCC 25922) (E. coli) (UniProt P00803). As to the kind of experiment: cell-based or functional assay.
Test [17] addresses LepB P88L (E. coli ATCC 25922) (E. coli) (UniProt P00803). Nature of the test: cell-based or functional assay.
The target of test [18] is LepB E83K (E. coli ATCC 25922) (E. coli) (UniProt P00803). As to the kind of experiment: cell-based or functional assay.
For test [19], the target named is LepB L142R (E. coli ATCC 25922) (E. coli) (UniProt P00803). Nature of the test: cell-based or functional assay.
Test [20] deals with LepB F85S (E. coli ATCC 25922) (E. coli) (UniProt P00803). As to the kind of experiment: cell-based or functional assay.
Test [21] addresses LepB D143Y (E. coli ATCC 25922) (E. coli) (UniProt P00803). As to the kind of experiment: cell-based or functional assay.
Test [22] concerns the target full length recombinant LepB from E. coli (E. coli) (UniProt P00803). Nature of the test: kinetic enzyme assay, full-length LepB in detergent micelle, fluorogenic substrate Dabcyl-DAP-PAKAAE-Edans (SEQ ID NO: 6), 2-step irreversible binding model (Dynafit).

In brackets after ≈: the same amount, converted by molar mass.

One may read the MIC as the smallest concentration in the dilution series that meets the test's criterion for growth inhibition. As to `CN(C)c1cc(NC(=O)CNC(C)(C)C)c(O)c2c1C[C@H]1C[C@H]3[C@H](N(C)C)C(O)=C(C(N)=O)C(=O)[C@@]3(O)C(O)=C1C2=O` [Tigecycline], in test [1] (Klebsiella pneumoniae), the MIC turned out to be 2 µg/mL (≈ 3.41 µM).
Same read-out and setting: the same measure for `C[C@@H](O)[C@H]1C(=O)N2C(C(=O)O)=C(S[C@@H]3CN[C@H](C(=O)N(C)C)C3)[C@H](C)[C@H]12` [Meropenem]: greater than 64 µg/mL.
As for `CCCCCCCCCCCCCCCC(=O)N(C)[C@H](CO)C(=O)N[C@H](C)C(=O)NCC(=O)N(C)[C@@H]1C(=O)N[C@@H](C)C(=O)N[C@H](C(=O)O)Cc2ccc(O)c(c2)-c2cc1ccc2O` [Arylomycin A-C16, reference compound], the MIC in test [2], in test [3], in test [4], in [5], in test [6] and in test [7] was greater than 64 µg/mL throughout. Further, the MIC in test [8] and in test [9] was greater than 64 µg/mL throughout.
As to Colistin, the MIC in test [1] (MDR K. pneumoniae CDC 0106) turned out to be 16 µg/mL.
In the case of `C[C@H]1COc2c(N3CCN(C)CC3)c(F)cc3c(=O)c(C(=O)O)cn1c23` [Levofloxacin], the MIC in test [1] (Klebsiella pneumoniae) is greater than 64 µg/mL.
What is called kinact is the rate constant of inactivation at saturating inhibitor. On to G0775 (peptide), for which the Fold MIC Increase in [10] stood at 4 fold; in [11], 4 fold; in test [12] it was 16 fold; in test [14], 128 fold; in [15], 4 fold; in test [16], 16 fold. In addition, the Fold MIC Increase in test [17] worked out at 16 fold; in test [18], 16 fold; in test [19], 8 fold; in test [20] it was 8 fold; in test [21], 8 fold. The G0775 MIC (µg/ml), MG 1655 - LepB High (Increase LepB expression level) in test [13] stood at 1 µg/mL. In test [13], this compound gave a G0775 MIC (µg/ml), MG 1655 - LepB Low (Reduced LepB expression level) of 0.008 µg/mL. The G0775 MIC (µg/ml), MG1655 WT in test [13] was 0.125 µg/mL. The kinact in test [22] is 0.0007 s⁻¹.
For the compound Gentamicin, in [1] (MDR K. pneumoniae CDC 0106), the MIC is greater than 64 µg/mL.
